From patent US20170088634A1, “TREATMENT OF NEUROTRAUMA USING ANTIBODIES TO LYSOPHOSPHATIDIC ACID” (priority 2012, published 2017)
Where two headings read alike, the source gives them in different places. Marks after values point to notes of the source that are not given here.

Experiments:
hNS/PC neurospheres [1] = assay: Neurosphere formation; type: cell-based, human; conditions: LPA 10 uM
Description: (§1) Neurospheres were used to model the role of LPA in neuronal differentiation as described in commonly-owned U.S. patent application publication no. US20110076269 and U.S. Pat. No. 8,604,172. […] LPA also interferes with an additional differentiation step, namely, the differentiation of NSC toward mature cells.
Anti-LPA antibodies have been found by the inventors to block LPA inhibition of neurosphere formation, as described in commonly-owned U.S. patent application publication no. US20110076269 and U.S. Pat. No. 8,604,172.

hNS/PC neurospheres [2] = assay: Neuronal differentiation of plated neurospheres (neuron-forming neurospheres); type: cell-based, human
Method: as §1
Using the same conditions used in Example 2, above, for LPA treatment alone, plated neurospheres were treated with 10 μM LPA alone, or with anti-LPA antibody B3 or B7 (1 mg/ml) alone, or with 10 μM LPA in combination with 1 mg/ml of antibody B3 or B7. Similarly, cells were treated with 10 μM LPA alone, humanized anti-LPA antibody LT3015 alone (1 mg/ml), or with 10 μM LPA in combination with 1 mg/ml LT3015. The percent of neuron-forming neurospheres was quantitated as in Example 2 (beta-tubulin staining and quantification of neuron-forming spheres, as described in Dottori, et al (2008)). […] Neurosphere samples treated with B3 antibody alone had neuron-forming neurospheres equivalent to control (100%). […] The antibody B7, under similar conditions, had little to no effect in this experiment (37.00±5.31% of control).
Using the conditions described in the Example above, […] were plated onto laminin for neuronal differentiation in NBM medium (3 days), with or without LPA (10 μM), with or without antibody to LPA at 1 mg/ml (B3, B7, or the humanized antibody LT3015, tested singly with or without LPA).

adult mouse NSC = assay: Neuronal differentiation of adult mouse NSC; type: cell-based
Description: However, and similarly to data obtained in human NSC, LPA inhibited the neuronal differentiation of adult mouse NSC by maintaining them as NSC when plated in conditions normally inducing neuronal differentiation. […] These effects were independent of apoptosis or proliferation.

[3] = Competition ELISA specificity, competitor lipid C1P; type: binding; conditions: n = 3
[4] = cited from earlier work
[5] = Competition ELISA, competitor lipid 18:1 LPA; type: binding; conditions: maximum inhibition
Description: (§2) Although polyclonal antibodies against naturally-occurring LPA have been reported in the literature (Chen, et al., Bioorg Med Chem Lett. 2000 Aug. 7; 10(15):1691-3), monoclonal antibodies to LPA had not been described until Sabbadini, et al., U.S. patent application publication no. 20080145360, and U.S. Pat. No. 8,158,124, both of which are commonly owned herewith. The former publication describes the production and characterization of a series of murine monoclonal antibodies against LPA and the latter describes, among other things, a humanized monoclonal antibody against LPA. IC50: Half maximum inhibition concentration; MI: Maximum inhibition (% of binding in the absence of inhibitor); ---: not estimated because of weak inhibition. A high inhibition result indicates recognition of the competitor lipid by the antibody.

human IL-8 = assay: LPA-induced IL-8 release in SKOV3 conditioned media; type: cell-based; design: dose or concentration left out as unconfirmed; conditions: Lpathomab 18:1 LPA, SKOV3, n = 3
[6] = Specificity / cross-reactivity profile; type: binding
SKOV3 cell migration = assay: Migration assay, SKOV3 cells triggered by LPA; type: cell-based; conditions: Lpathomab, 1 mM 18:1 LPA, SKOV3, n = 3
[7] = Surface plasmon resonance (BiaCore) and direct binding ELISA of LT3000; conditions: Table 12
Description: (§3) The murine antibody is a full-length IgG1 k isotype antibody composed of two identical light chains and two identical heavy chains with a total molecular weight of 155.5 kDa.

SKOV3 cell invasion = assay: Invasion assay, SKOV3 cells triggered by LPA; type: cell-based; design: dose or concentration left out as unconfirmed; conditions: Lpathomab 14:0 LPA, SKOV3, n = 2
[8] = cited from earlier work; remark: listed apart in the source
[9] = Competition ELISA specificity, competitor lipid Cer; type: binding; conditions: n = 3
[10] = Competition ELISA specificity, competitor lipid DSPA (distearoyl PA); type: binding; conditions: n = 3
Method: (§4) The specificity of the anti-LPA mAbs was assessed for their binding to LPA-related biolipids such as distearoyl-phosphatidic acid, lysophosphatidylcholine, SIP, ceramide, and ceramide-1-phosphate.

[11] = cited from earlier work; remark: listed apart in the source
[12] = Competition ELISA, competitor lipid 16:0 LPA; type: binding; conditions: maximum inhibition
Description: as §2

[13] = Competition ELISA specificity, competitor lipid S1P; type: binding; conditions: n = 3
Solubility of antibody = type: physicochemical; conditions: 6.6 mM phosphate, 154 mM sodium chloride, pH 7.4
[14] = Specificity of LT3000 against other lipids and proteins; type: binding; conditions: over 100 different bioactive lipids and proteins, including over 20 bioactive lipids
Description: as §3

Apparent Tm of antibody = type: physicochemical; conditions: pH7.4
interleukin-8 (IL-8) = assay: IL-8 release from ovarian cancer cells; type: cell-based
Description: Five humanized variants were further assessed in in vitro cell assays. LPA is important in eliciting release of interleukin-8 (IL-8) from cancer cells.

[15] = Competition ELISA, competitor lipid 14:0 LPA; type: binding; conditions: maximum inhibition
Description: as §2

[16] = Binding affinity of humanized, chimeric and murine anti-LPA antibodies
[17] = Competition ELISA, competitor lipid 18:2 LPA; type: binding; conditions: maximum inhibition
Description: as §2

human IL-6 = assay: LPA-induced IL-6 release in SKOV3 conditioned media; type: cell-based; conditions: Lpathomab 300-600 mg/mL, 1 mM 18:1 LPA, SKOV3, n = 3
[18] = Competition ELISA specificity, competitor lipid LPC; type: binding; conditions: n = 3
Method: as §4

[19] = Competition ELISA, competitor lipid 20:4 LPA; type: binding; conditions: maximum inhibition
Description: as §2

[20] = cited from earlier work; remark: listed apart in the source
[21] = cited from earlier work; remark: listed apart in the source
SKOV3 cells = assay: Apoptosis: Taxol induced caspase-3 activation in SKOV3 cells, LPA protection; type: cell-based; conditions: Lpathomab, 1 mM Taxol, 1 mM 18:1 LPA, SKOV3, n = 1

lysophosphatidic acid [LPA]
neurosphere formation, LPA (hNS/PC neurospheres [1]): inhibited | decrease in neuron-forming spheres (hNS/PC neurospheres [2]; 10 uM LPA): ~80% | neuron-forming spheres, LPA alone (Example 4) (hNS/PC neurospheres [2]; 10 μM LPA, 3 days): approximately 26 % of control | neurosphere formation or growth of mouse NSC (adult mouse NSC): did not modify | βIII-tubulin expression (differentiated neurons) (adult mouse NSC; LPA (10 NM), three days, untreated 57.12±18.42%): 26.25±2.08 % of total cells | nestin positive (undifferentiated NSCs) (adult mouse NSC; LPA (10 NM), three days, untreated 58.01±6.20): 87.55±3.20 % of total cells

B1: B7: murine anti-LPA monoclonal antibody, full-length IgG1k; VH SEQ ID NO: 3, VL SEQ ID NO: 4 (antibody, V domains shown)
VH: QVQLQQSGAELVRPGTSVKVSCKASGYGFINYLIEWIKQRPGQGLEWIGLINPGSDYTNYNENFKGKATLTADKSSSTAYMHLSSLTSEDSAVYFCARRFGYYGSGNYFDYWGQGTTLTVSS
VL: DVVMTQTPLSLPVSLGDQASISCTSGQSLVHINGNTYLHWYLQKPGQSPKLLIYKVSNLFSGVPDRFSGSGSGTDFTLKISRVEAEDLGVYFCSQSTHFPFTFGTGTKLEIK
MI, competitor lipid C1P [3]: 1.0% | IC50 ([4]; competition ELISA, half maximum inhibition concentration, read-out: 14:0 LPA IC50): 105 nM | 14:0 LPA MI ([4]; maximum inhibition (% of binding in the absence of inhibitor)): 61.3% | MI, competitor lipid 18:1 LPA [5]: 100% | IL-8 Release % Inhibition (over LPA taken as 100) (human IL-8): 20% | cross-reactivity to LPC, PA, 14:0 and 18:1 LPA, cPA, PC [6]: no cross-reactivity | Migration % Inhibition (over LPA taken as 100) (SKOV3 cell migration): 35* % | Kd [7]: 0.001 to 0.05 nM | Invasion % Inhibition (over LPA taken as 100) (SKOV3 cell invasion): 95* % | IC50 ([8]; competition ELISA, read-out: 18:1 LPA IC50): > 2000 nM | 18:1 LPA MI ([8]; maximum inhibition): 100% | MI, competitor lipid Cer [9]: 1% | MI, competitor lipid DSPA [10]: 0% | IC50 ([11]; competition ELISA, read-out: 16:0 LPA IC50): 483 nM | 16:0 LPA MI ([11]; maximum inhibition): 62.9% | MI, competitor lipid 16:0 LPA [12]: 62.9% | MI, competitor lipid S1P [13]: 2.7% | neuron-forming neurospheres, LPA plus antibody (pool of data) (hNS/PC neurospheres [2]; 10 μM LPA in combination with 1 mg/ml antibody): 37.00±5.31 % of control | number of neurons in neurospheres (comparison between antibodies) (hNS/PC neurospheres [2]; 10 μM LPA plus antibody 1 mg/ml): lesser number of neurons | neuron-forming neurospheres, LPA plus antibody (Example 4) (hNS/PC neurospheres [2]; 10 μM LPA, antibody 1 mg/ml, 3 days on laminin in NBM medium): 50 % of control | Solubility (Solubility of antibody): >40 mg/mL in 6.6 mM phosphate, | binding affinity for other bioactive lipids and proteins (specificity) [14]: no binding affinity | Apparent Tm (Apparent Tm of antibody): 67 °C at pH7.4 | IL-8 release from ovarian cancer cells (interleukin-8 (IL-8)): reduced IL-8 release | MI, competitor lipid 14:0 LPA [15]: 61.3% | binding affinity for LPA (in words) [16]: low picomolar range | MI, competitor lipid 18:2 LPA [17]: 100% | IL-6 Release % Inhibition (over LPA taken as 100) (human IL-6): 23* % | MI, competitor lipid LPC [18]: 0% | MI, competitor lipid 20:4 LPA [19]: 67% | IC50 ([20]; competition ELISA, read-out: 18:2 LPA IC50): 1490 nM | 18:2 LPA MI ([20]; maximum inhibition): 100% | IC50 ([21]; competition ELISA, read-out: 20:4 LPA IC50): 161 nM | 20:4 LPA MI ([21]; maximum inhibition): 67% | Apoptosis % Induction (over LPA + TAXOL taken as 100) (SKOV3 cells): 79%
